# Test results published in US20130157934A1 (INDIANA UNIVERSITY RESEARCH AND TECHNOLOGY, published 2013).
# Where two headings read alike, the source gives them in different places. Starred links: 1 amine or outer side, 2 acyl side, 3 side chain; linkers in the order of their positions; H or OH if unused. Positions of bridges follow the written chain, without caps; N, C: chain ends. Non-standard residues stand in square brackets, D forms with d. Groups on a side chain read outwards from the residue. No end group written: not given here. estradiol (3-ether, amide-linked) = estradiol attached through its 3-position ether, via an amide; PhLac = O=C(O)[C@@H](O)Cc1ccccc1; Suc = O=C(CCC(=O)[*:2])[*:1]; Aib = CC(C)(N)C(=O)O
# B1: E9, E16K20(lactam) glucagon(6-39) Cex peptide (peptide)
# peptide: FTSEYSKYLDERRAKDFVQWLMNTGPSSGAPPPS-NH2
# modifications: lactam 11-15; N-terminus assumed
# SMILES: CSCC[C@H](NC(=O)[C@H](CC(C)C)NC(=O)[C@H](Cc1c[nH]c2ccccc12)NC(=O)[C@H](CCC(N)=O)NC(=O)[C@@H](NC(=O)[C@H](Cc1ccccc1)NC(=O)[C@H](CC(=O)O)NC(=O)[C@@H]1CCCCNC(=O)CC[C@H](NC(=O)[C@H](CC(=O)O)NC(=O)[C@H](CC(C)C)NC(=O)[C@H](Cc2ccc(O)cc2)NC(=O)[C@H](CCCCN)NC(=O)[C@H](CO)NC(=O)[C@H](Cc2ccc(O)cc2)NC(=O)[C@H](CCC(=O)O)NC(=O)[C@H](CO)NC(=O)[C@@H](NC(=O)[C@@H](N)Cc2ccccc2)[C@@H](C)O)C(=O)N[C@@H](CCCNC(=N)N)C(=O)N[C@@H](CCCNC(=N)N)C(=O)N[C@@H](C)C(=O)N1)C(C)C)C(=O)N[C@@H](CC(N)=O)C(=O)N[C@H](C(=O)NCC(=O)N1CCC[C@H]1C(=O)N[C@@H](CO)C(=O)N[C@@H](CO)C(=O)NCC(=O)N[C@@H](C)C(=O)N1CCC[C@H]1C(=O)N1CCC[C@H]1C(=O)N1CCC[C@H]1C(=O)N[C@@H](CO)C(N)=O)[C@@H](C)O
# B2: E9, K12E16(lactam) glucagon(6-39) Cex peptide (peptide)
# peptide: FTSEYSKYLDERRAQDFVQWLMNTGPSSGAPPPS-NH2
# modifications: lactam 7-11; N-terminus assumed
# SMILES: CSCC[C@H](NC(=O)[C@H](CC(C)C)NC(=O)[C@H](Cc1c[nH]c2ccccc12)NC(=O)[C@H](CCC(N)=O)NC(=O)[C@@H](NC(=O)[C@H](Cc1ccccc1)NC(=O)[C@H](CC(=O)O)NC(=O)[C@H](CCC(N)=O)NC(=O)[C@H](C)NC(=O)[C@H](CCCNC(=N)N)NC(=O)[C@H](CCCNC(=N)N)NC(=O)[C@@H]1CCC(=O)NCCCC[C@H](NC(=O)[C@H](CO)NC(=O)[C@H](Cc2ccc(O)cc2)NC(=O)[C@H](CCC(=O)O)NC(=O)[C@H](CO)NC(=O)[C@@H](NC(=O)[C@@H](N)Cc2ccccc2)[C@@H](C)O)C(=O)N[C@@H](Cc2ccc(O)cc2)C(=O)N[C@@H](CC(C)C)C(=O)N[C@@H](CC(=O)O)C(=O)N1)C(C)C)C(=O)N[C@@H](CC(N)=O)C(=O)N[C@H](C(=O)NCC(=O)N1CCC[C@H]1C(=O)N[C@@H](CO)C(=O)N[C@@H](CO)C(=O)NCC(=O)N[C@@H](C)C(=O)N1CCC[C@H]1C(=O)N1CCC[C@H]1C(=O)N1CCC[C@H]1C(=O)N[C@@H](CO)C(N)=O)[C@@H](C)O
# B3: [A2E3, E16K20(Lactam), D28]G(1~29) (peptide)
# peptide: HAEGTFTSEYSKYLDERRAKDFVQWLMDT-NH2
# modifications: lactam 16-20; N-terminus assumed
# SMILES: CSCC[C@H](NC(=O)[C@H](CC(C)C)NC(=O)[C@H](Cc1c[nH]c2ccccc12)NC(=O)[C@H](CCC(N)=O)NC(=O)[C@@H](NC(=O)[C@H](Cc1ccccc1)NC(=O)[C@H](CC(=O)O)NC(=O)[C@@H]1CCCCNC(=O)CC[C@H](NC(=O)[C@H](CC(=O)O)NC(=O)[C@H](CC(C)C)NC(=O)[C@H](Cc2ccc(O)cc2)NC(=O)[C@H](CCCCN)NC(=O)[C@H](CO)NC(=O)[C@H](Cc2ccc(O)cc2)NC(=O)[C@H](CCC(=O)O)NC(=O)[C@H](CO)NC(=O)[C@@H](NC(=O)[C@H](Cc2ccccc2)NC(=O)[C@@H](NC(=O)CNC(=O)[C@H](CCC(=O)O)NC(=O)[C@H](C)NC(=O)[C@@H](N)Cc2c[nH]cn2)[C@@H](C)O)[C@@H](C)O)C(=O)N[C@@H](CCCNC(=N)N)C(=O)N[C@@H](CCCNC(=N)N)C(=O)N[C@@H](C)C(=O)N1)C(C)C)C(=O)N[C@@H](CC(=O)O)C(=O)N[C@H](C(N)=O)[C@@H](C)O
# B4: [PLA6, D9, E16, E24K28(lactam)]G(6~29) (peptide)
# peptide: [PhLac]TSDYSKYLDERRAQDFVEWLMKT-NH2
# modifications: lactam 19-23; N-terminus assumed
# SMILES: CSCC[C@@H]1NC(=O)[C@H](CC(C)C)NC(=O)[C@H](Cc2c[nH]c3ccccc23)NC(=O)[C@@H](NC(=O)[C@@H](NC(=O)[C@H](Cc2ccccc2)NC(=O)[C@H](CC(=O)O)NC(=O)[C@H](CCC(N)=O)NC(=O)[C@H](C)NC(=O)[C@H](CCCNC(=N)N)NC(=O)[C@H](CCCNC(=N)N)NC(=O)[C@H](CCC(=O)O)NC(=O)[C@H](CC(=O)O)NC(=O)[C@H](CC(C)C)NC(=O)[C@H](Cc2ccc(O)cc2)NC(=O)[C@H](CCCCN)NC(=O)[C@H](CO)NC(=O)[C@H](Cc2ccc(O)cc2)NC(=O)[C@H](CC(=O)O)NC(=O)[C@H](CO)NC(=O)[C@@H](NC(=O)[C@@H](O)Cc2ccccc2)[C@@H](C)O)C(C)C)CCC(=O)NCCCC[C@@H](C(=O)N[C@H](C(N)=O)[C@@H](C)O)NC1=O
# B5: [PLA6, E9, K12E16(Lactam)] glucagon(6-39) Cex peptide (peptide)
# peptide: XTSEYSKYLDERRAQDFVQWLMNTGPSSGAPPPS
# modifications: not fully specified; X1 = PLA (phenyl lactic acid in place of Phe 6 of glucagon); lactam bridge K12-E16 (glucagon numbering; residues 7 and 11 of this chain)
# B6: [E9, E16K20(lactam), D28]G(4~29) (peptide)
# peptide: GTFTSEYSKYLDERRAKDFVQWLMDT-NH2
# modifications: lactam 13-17; N-terminus assumed
# SMILES: CSCC[C@H](NC(=O)[C@H](CC(C)C)NC(=O)[C@H](Cc1c[nH]c2ccccc12)NC(=O)[C@H](CCC(N)=O)NC(=O)[C@@H](NC(=O)[C@H](Cc1ccccc1)NC(=O)[C@H](CC(=O)O)NC(=O)[C@@H]1CCCCNC(=O)CC[C@H](NC(=O)[C@H](CC(=O)O)NC(=O)[C@H](CC(C)C)NC(=O)[C@H](Cc2ccc(O)cc2)NC(=O)[C@H](CCCCN)NC(=O)[C@H](CO)NC(=O)[C@H](Cc2ccc(O)cc2)NC(=O)[C@H](CCC(=O)O)NC(=O)[C@H](CO)NC(=O)[C@@H](NC(=O)[C@H](Cc2ccccc2)NC(=O)[C@@H](NC(=O)CN)[C@@H](C)O)[C@@H](C)O)C(=O)N[C@@H](CCCNC(=N)N)C(=O)N[C@@H](CCCNC(=N)N)C(=O)N[C@@H](C)C(=O)N1)C(C)C)C(=O)N[C@@H](CC(=O)O)C(=O)N[C@H](C(N)=O)[C@@H](C)O
# B7: [PLA6, D9, E16, K20E24(Lactam), D28]G(6-29) (peptide)
# peptide: [PhLac]TSDYSKYLDERRAKDFVEWLMDT-NH2
# modifications: lactam 15-19; N-terminus assumed
# SMILES: CSCC[C@H](NC(=O)[C@H](CC(C)C)NC(=O)[C@H](Cc1c[nH]c2ccccc12)NC(=O)[C@@H]1CCC(=O)NCCCC[C@H](NC(=O)[C@H](C)NC(=O)[C@H](CCCNC(=N)N)NC(=O)[C@H](CCCNC(=N)N)NC(=O)[C@H](CCC(=O)O)NC(=O)[C@H](CC(=O)O)NC(=O)[C@H](CC(C)C)NC(=O)[C@H](Cc2ccc(O)cc2)NC(=O)[C@H](CCCCN)NC(=O)[C@H](CO)NC(=O)[C@H](Cc2ccc(O)cc2)NC(=O)[C@H](CC(=O)O)NC(=O)[C@H](CO)NC(=O)[C@@H](NC(=O)[C@@H](O)Cc2ccccc2)[C@@H](C)O)C(=O)N[C@@H](CC(=O)O)C(=O)N[C@@H](Cc2ccccc2)C(=O)N[C@@H](C(C)C)C(=O)N1)C(=O)N[C@@H](CC(=O)O)C(=O)N[C@H](C(N)=O)[C@@H](C)O
# Legend:
# Experiment in all cases: cell-based or functional assay
# GLP-1 receptor [1] = biological target: T1, GLP-1 receptor (UniProt P43220 24-463, limits assumed)
# glucagon receptor [2] = biological target: T2, glucagon receptor (UniProt P47871 26-477, limits assumed)
# GLP-1 receptor [3] = biological target: T1, GLP-1 receptor; remark: listed apart in the source
# glucagon receptor [4] = biological target: T2, glucagon receptor; remark: listed apart in the source
# glucagon receptor [5] = biological target: T2, glucagon receptor; remark: listed apart in the source
# GLP-1 receptor [6] = biological target: T1, GLP-1 receptor; remark: listed apart in the source
# GLP-1 receptor [7] = biological target: T1, GLP-1 receptor; remark: listed apart in the source
# Target sequence in this assay (P43220 24-463 limits assumed): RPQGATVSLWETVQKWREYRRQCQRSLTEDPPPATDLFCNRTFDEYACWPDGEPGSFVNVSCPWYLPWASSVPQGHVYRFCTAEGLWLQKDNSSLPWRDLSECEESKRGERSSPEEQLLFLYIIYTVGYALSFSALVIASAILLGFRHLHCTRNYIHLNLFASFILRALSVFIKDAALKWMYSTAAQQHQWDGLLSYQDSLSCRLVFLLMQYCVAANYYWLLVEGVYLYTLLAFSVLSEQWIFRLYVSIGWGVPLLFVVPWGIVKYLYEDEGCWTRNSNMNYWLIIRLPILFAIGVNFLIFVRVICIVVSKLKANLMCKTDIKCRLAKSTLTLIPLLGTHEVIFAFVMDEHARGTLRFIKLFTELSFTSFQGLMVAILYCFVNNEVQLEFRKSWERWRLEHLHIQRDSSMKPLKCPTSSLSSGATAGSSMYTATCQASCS
# glucagon receptor [8] = biological target: T2, glucagon receptor; remark: listed apart in the source
# glucagon receptor [9] = biological target: glucagon receptor (UniProt P47871)
# GLP-1 receptor [10] = biological target: GLP-1 receptor (UniProt P43220)
# glucagon receptor [11] = biological target: glucagon receptor (UniProt P47871); remark: listed apart in the source
# GLP-1 receptor [12] = biological target: T1, GLP-1 receptor; remark: listed apart in the source
# Target sequence in this assay (P43220 24-463 limits assumed): as above
# T2 sequence (P47871 26-477 limits assumed): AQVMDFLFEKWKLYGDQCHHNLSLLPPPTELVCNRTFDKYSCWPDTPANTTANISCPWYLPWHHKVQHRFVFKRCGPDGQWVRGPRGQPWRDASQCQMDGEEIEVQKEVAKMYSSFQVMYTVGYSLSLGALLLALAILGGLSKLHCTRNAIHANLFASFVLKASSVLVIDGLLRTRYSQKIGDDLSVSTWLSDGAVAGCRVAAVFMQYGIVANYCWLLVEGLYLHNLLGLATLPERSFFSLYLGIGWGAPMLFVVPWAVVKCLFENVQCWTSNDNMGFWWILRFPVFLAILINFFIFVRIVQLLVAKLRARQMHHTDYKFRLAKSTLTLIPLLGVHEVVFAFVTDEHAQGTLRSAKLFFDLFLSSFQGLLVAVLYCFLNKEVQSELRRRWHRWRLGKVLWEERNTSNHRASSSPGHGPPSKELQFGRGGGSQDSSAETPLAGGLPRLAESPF
# glucagon receptor (UniProt P47871), sequence (P47871 26-477 limits assumed): as above
# GLP-1 receptor (UniProt P43220), sequence (P43220 24-463 limits assumed): as the sequence (P43220 24-463 limits assumed) above
binder,measurement,setting,value
B1,GLP-1 EC50,GLP-1 receptor [1],36 nM
same,Glu IC50,glucagon receptor [2],42 nM
same,GLP-1 EC50,GLP-1 receptor [3],36 nM
same,Glucagon IC50,glucagon receptor [4],42 nM
"[PhLac]TSDYSKYLDERRAKDFVQWLMDT-NH2 (lactam 11-15) [[PLA6, D9, E16K20(lactam), D28]G(6-29)]",Glucagon IC50,glucagon receptor [5],10 to 30 nM
same,GLP-1 EC50,GLP-1 receptor [3],4 nM
same,Glucagon IC50,glucagon receptor [4],6 nM
B2,GLP-1 EC50,GLP-1 receptor [1],63 nM
same,Glu IC50,glucagon receptor [2],2010 nM
same,GLP-1 EC50,GLP-1 receptor [3],63 nM
same,Glucagon IC50,glucagon receptor [4],2010 nM
"AEGTFTSEYSKYLDERRAKDFVQWLMDT-NH2 (lactam 15-19) [[A2E3, E16K20(Lactam), D28]G(2~29)]",Glucagon IC50,glucagon receptor [5],63 nM
B3,GLP-1 EC50,GLP-1 receptor [6],0.2 nM
same,Glucagon IC50,glucagon receptor [5],130 nM
B4,GLP-1 EC50,GLP-1 receptor [7],289 nM
same,Glucagon IC50,glucagon receptor [8],22 nM
B5,Glu IC50,glucagon receptor [9],72 nM
same,GLP-1 EC50,GLP-1 receptor [10],6 nM
same,Glucagon IC50,glucagon receptor [11],72 nM
B6,GLP-1 EC50,GLP-1 receptor [6],151 nM
same,Glucagon IC50,glucagon receptor [5],10 to 30 nM
[dA][Aib][dE]G[dT][dF][dT][dS][dD][dV][dS][dS][dY][dL][dE]G[dQ][dA][dA][dK][dE][dA][dI][dA][dW][dL][dV][dK]GG[dP][dS][dS]G[dA][dP][dP][dP][dS]K([Suc-estradiol])-NH2 [Inactive GLP-1 (d-amino acid containing)/Estrogen(3-ester)],"GLP-1 EC50 (cAMP induction, CRE-luciferase in HEK293 cells)",GLP-1 receptor [12],562 nM
B7,GLP-1 EC50,GLP-1 receptor [7],239 nM
same,Glucagon IC50,glucagon receptor [8],74 nM
"FTSEYSKYLDERRAQDFVQWLMNTGPSSGAPPPS-NH2 [E9, K12, E16 glucagon(6-39) Cex peptide]",Glu IC50,glucagon receptor [2],762 nM
same,Glucagon IC50,glucagon receptor [4],762 nM
"[dA][Aib][dE]G[dT][dF][dT][dS][dD][dV][dS][dS][dY][dL][dE]G[dQ][dA][dA][dK][dE][dA][dI][dA][dW][dL][dV][dK]GG[dP][dS][dS]G[dA][dP][dP][dP][dS]K(estradiol (3-ether, amide-linked))-NH2 [Inactive GLP-1 (d-amino acid containing)/Estrogen(3-ether)]","GLP-1 EC50 (cAMP induction, CRE-luciferase in HEK293 cells)",GLP-1 receptor [12],418 nM
"FTSDYSKYLDERRAQDFVQWLMNTGPSSGAPPPS-NH2 (lactam 7-11; not fully specified) [D9, K12E16(Lactam) glucagon(6-39) Cex peptide]",GLP-1 EC50,GLP-1 receptor [1],119 nM
same,Glu IC50,glucagon receptor [2],828 nM
same,GLP-1 EC50,GLP-1 receptor [3],18 nM
same,Glucagon IC50,glucagon receptor [4],828 nM
HSQGTFTSDYARYLDARRAREFIKWLVRGRG [ANK2 (Bayer peptide)],GLP-1 EC50,GLP-1 receptor [6],0.28 nM
